Measured values taken from patent publication US20250388683A1.

Target: canine IL-31 (canine)

Row | IC50 (read off the curve); STAT3-SEAP reporter, canine IL-31 stimulation [nM] | Substance
1 | 1 to 10 | Cytopoint® (Lokivetmab), a canine anti-IL31 (Cas number: 1533403-95-0) (antibody)
2 | 3 | Tirnovetmab, a canine anti-IL31 (Cas number: 2364504-80-1) (antibody)
